The target in the assay is frataxin, mature form (FXN^81–210) (human) (UniProt Q16595). Description: ITC. A general note: ITC needs no label: the signal is the heat of the interaction.
Sequence of frataxin, mature form (FXN^81–210) (human) (Q16595 81-210): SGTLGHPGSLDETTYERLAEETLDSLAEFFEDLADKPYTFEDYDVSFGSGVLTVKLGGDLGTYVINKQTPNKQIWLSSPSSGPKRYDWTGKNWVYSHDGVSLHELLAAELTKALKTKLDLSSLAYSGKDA

Sequence of cysteine desulfurase complex [NFS1]2:[ISD11]2:[Acp]2 (P0A6A8 whole entry, looked up): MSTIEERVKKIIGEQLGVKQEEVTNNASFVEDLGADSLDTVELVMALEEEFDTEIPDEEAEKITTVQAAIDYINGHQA
Sequence of cysteine desulfurase complex [NFS1]2:[ISD11]2:[Acp]2 (Q9HD34 whole entry, looked up): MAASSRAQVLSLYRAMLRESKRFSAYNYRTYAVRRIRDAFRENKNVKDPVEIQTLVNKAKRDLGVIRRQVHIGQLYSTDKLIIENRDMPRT
Sequence of [NFS1]2:[ISD11]2:[Acp]2:[ISCU]2 complex (Q9H1K1 whole entry, looked up): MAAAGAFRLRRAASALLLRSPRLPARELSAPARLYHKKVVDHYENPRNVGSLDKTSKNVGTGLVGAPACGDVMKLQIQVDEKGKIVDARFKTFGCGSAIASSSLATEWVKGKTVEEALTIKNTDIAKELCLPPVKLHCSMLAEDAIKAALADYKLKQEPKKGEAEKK
Sequence of [NFS1]2:[ISD11]2:[Acp]2:[ISCU]2 complex (P0A6A8 whole entry, looked up): as the sequence (P0A6A8 whole entry, looked up) above
Sequence of [NFS1]2:[ISD11]2:[Acp]2:[ISCU]2 complex (Q9HD34 whole entry, looked up): as the sequence (Q9HD34 whole entry, looked up) above

Turning to “[NFS1]2:[ISD11]2:[Acp]2:[ISCU]2 complex (from UniProt Q9HD34 1-91; P0A6A8 1-78; Q9H1K1-1 35-167)”, the Kd was 3 µM.

In turn, “cysteine desulfurase complex [NFS1]2:[ISD11]2:[Acp]2 (from UniProt Q9HD34 1-91; P0A6A8 1-78)” had a Kd of 26.2 µM.

As a reminder, the Kd is the concentration at which binding is half-saturated. Read a low Kd as a tighter complex.
